What was measured:
[1] = target: rat liver AMPK α1 isoform (affinity purified α1 AMPK, native enzyme) (rat) (UniProt P54645); assay: peptide substrate affinity chromatography of rat liver preparations, with recycling
[2] = target: rat liver AMPK α1 isoform (affinity purified α1 AMPK, native enzyme) (rat) (UniProt P54645); assay: peptide substrate affinity chromatography of rat liver preparations, single pass

Chain of UniProt P54645 (P54645 whole entry, form in doubt, chain 1 of 2, canonical isoform): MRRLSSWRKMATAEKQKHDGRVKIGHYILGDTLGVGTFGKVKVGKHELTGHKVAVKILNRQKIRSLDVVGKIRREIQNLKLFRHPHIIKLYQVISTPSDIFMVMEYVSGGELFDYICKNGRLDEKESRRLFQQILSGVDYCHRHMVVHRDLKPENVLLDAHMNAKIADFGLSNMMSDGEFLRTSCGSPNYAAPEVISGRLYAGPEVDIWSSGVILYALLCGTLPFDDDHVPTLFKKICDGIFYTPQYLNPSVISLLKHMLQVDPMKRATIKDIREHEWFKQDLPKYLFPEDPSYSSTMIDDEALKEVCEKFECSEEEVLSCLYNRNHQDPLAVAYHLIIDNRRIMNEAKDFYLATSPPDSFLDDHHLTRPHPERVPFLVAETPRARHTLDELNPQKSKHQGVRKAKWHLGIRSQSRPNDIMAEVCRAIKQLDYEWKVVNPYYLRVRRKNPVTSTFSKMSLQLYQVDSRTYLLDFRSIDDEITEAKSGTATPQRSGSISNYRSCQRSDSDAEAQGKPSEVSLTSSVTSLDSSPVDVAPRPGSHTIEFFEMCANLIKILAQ
Chain of UniProt P54645 (P80385 whole entry, form in doubt, chain 2 of 2, further chain, canonical isoform): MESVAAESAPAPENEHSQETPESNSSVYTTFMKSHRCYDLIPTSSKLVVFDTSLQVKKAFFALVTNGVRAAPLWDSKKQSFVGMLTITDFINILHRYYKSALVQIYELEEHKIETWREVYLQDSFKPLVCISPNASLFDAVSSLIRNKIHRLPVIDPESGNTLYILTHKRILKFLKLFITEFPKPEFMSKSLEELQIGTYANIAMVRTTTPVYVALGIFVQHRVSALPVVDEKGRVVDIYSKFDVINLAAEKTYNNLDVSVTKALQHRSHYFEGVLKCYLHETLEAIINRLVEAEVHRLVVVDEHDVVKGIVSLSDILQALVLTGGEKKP

proportion of SAMS peptide phosphotransferase activity bound to the column with recycling [1]: 94%
proportion of SAMS peptide phosphotransferase activity bound to the peptide affinity column with a single pass [2]: 90 to 92%
Substance: ADR1 (222-234)P229 peptide

— patent EP0873354B1
